According to patent US20170275666A1, “Methods for Preparing Rebaudioside I and Uses” (The Coca-Cola Company, priority 2014, published 2017):

Assay: Directed evolution of UGT76G1, conversion of Rebaudioside D to Rebaudioside M (round 1)
Type: biochemical
Conditions: 0.5 mM Rebaudioside D, 2.5 mM UDP-Glucose, 100 μL fresh lysate, 30° C., pH 7.2
Summary of the method: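 UGT76G1 variants carrying 3-5 designed mutations were expressed in E. coli BL21(DE3) (pET30a+, 44 h at 20° C) and lysed. Lysate was reacted with 0.5 mM Reb D, 2.5 mM UDP-glucose, 3 mM MgCl2 in 50 mM phosphate pH 7.2 at 30° C; HPLC-CAD sampling at 2, 4, 7, 24 h gave conversion and initial rate.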

Row | Molecule | Conversion Reb D to Reb M after 24 h (%) | initial rate (Reb M area/min)
1 | UGT76G1var77: UGT76G1 variant, mutations A239V_F265I_I295T_D301N_K393G (protein, UniProt Q6VAB4 1-458, looked up, variant A239V F265I I295T D301N K393G) UDP-glycosyltransferase 76G1: MENKTETTVRRRRRIILFPVPFQGHINPILQLANVLYSKGFSITIFHTNFNKPKTSNYPHFTFRFILDNDPQDERISNLPTHGPLAGMRIPIINEHGADELRRELELLMLASEEDEEVSCLITDALWYFAQSVADSLNLRRLVLMTSSLFNFHAHVSLPQFDELGYLDPDDKTRLEEQASGFPMLKVKDIKSAYSNWQILKEILGKMIKQTKASSGVIWNSFKELEESELETVIREIPVPSFLIPLPKHLTASSSSLLDHDRTVIQWLDQQPPSSVLYVSFGSTSEVDEKDFLETARGLVNSKQSFLWVVRPGFVKGSTWVEPLPDGFLGERGRIVKWVPQQEVLAHGAIGAFWTHSGWNSTLESVCEGVPMIFSDFGLDQPLNARYMSDVLGVGVYLENGWERGEIANAIRRVMVDEEGEYIRQNARVLKQKADVSLMKGGSSYESLESLVSYISSL | 1.9 | 4.4E+05
2 | UGT76G1var78: UGT76G1 variant, mutations V279I_V300A_V310I_I335V_S357C (protein, UniProt Q6VAB4 1-458, looked up, variant V279I V300A V310I I335V S357C) UDP-glycosyltransferase 76G1: MENKTETTVRRRRRIILFPVPFQGHINPILQLANVLYSKGFSITIFHTNFNKPKTSNYPHFTFRFILDNDPQDERISNLPTHGPLAGMRIPIINEHGADELRRELELLMLASEEDEEVSCLITDALWYFAQSVADSLNLRRLVLMTSSLFNFHAHVSLPQFDELGYLDPDDKTRLEEQASGFPMLKVKDIKSAYSNWQILKEILGKMIKQTKASSGVIWNSFKELEESELETVIREIPAPSFLIPLPKHLTASSSSLLDHDRTVFQWLDQQPPSSVLYISFGSTSEVDEKDFLEIARGLADSKQSFLWVIRPGFVKGSTWVEPLPDGFLGERGRVVKWVPQQEVLAHGAIGAFWTHCGWNSTLESVCEGVPMIFSDFGLDQPLNARYMSDVLKVGVYLENGWERGEIANAIRRVMVDEEGEYIRQNARVLKQKADVSLMKGGSSYESLESLVSYISSL | 3.2 | 8.2E+05
3 | UGT76G1var85: UGT76G1 variant, mutations T284L_G348P_F377C_P382M_N409R (protein, UniProt Q6VAB4 1-458, looked up, variant T284L G348P F377C P382M N409R) UDP-glycosyltransferase 76G1: MENKTETTVRRRRRIILFPVPFQGHINPILQLANVLYSKGFSITIFHTNFNKPKTSNYPHFTFRFILDNDPQDERISNLPTHGPLAGMRIPIINEHGADELRRELELLMLASEEDEEVSCLITDALWYFAQSVADSLNLRRLVLMTSSLFNFHAHVSLPQFDELGYLDPDDKTRLEEQASGFPMLKVKDIKSAYSNWQILKEILGKMIKQTKASSGVIWNSFKELEESELETVIREIPAPSFLIPLPKHLTASSSSLLDHDRTVFQWLDQQPPSSVLYVSFGSLSEVDEKDFLEIARGLVDSKQSFLWVVRPGFVKGSTWVEPLPDGFLGERGRIVKWVPQQEVLAHPAIGAFWTHSGWNSTLESVCEGVPMIFSDCGLDQMLNARYMSDVLKVGVYLENGWERGEIARAIRRVMVDEEGEYIRQNARVLKQKADVSLMKGGSSYESLESLVSYISSL | 1.8 | 4.0E+05
4 | UGT76G1var80: UGT76G1 variant, mutations L243P_L379A_S389E_Q425E_Q432E (protein, UniProt Q6VAB4 1-458, looked up, variant L243P L379A S389E Q425E Q432E) UDP-glycosyltransferase 76G1: MENKTETTVRRRRRIILFPVPFQGHINPILQLANVLYSKGFSITIFHTNFNKPKTSNYPHFTFRFILDNDPQDERISNLPTHGPLAGMRIPIINEHGADELRRELELLMLASEEDEEVSCLITDALWYFAQSVADSLNLRRLVLMTSSLFNFHAHVSLPQFDELGYLDPDDKTRLEEQASGFPMLKVKDIKSAYSNWQILKEILGKMIKQTKASSGVIWNSFKELEESELETVIREIPAPSFPIPLPKHLTASSSSLLDHDRTVFQWLDQQPPSSVLYVSFGSTSEVDEKDFLEIARGLVDSKQSFLWVVRPGFVKGSTWVEPLPDGFLGERGRIVKWVPQQEVLAHGAIGAFWTHSGWNSTLESVCEGVPMIFSDFGADQPLNARYMEDVLKVGVYLENGWERGEIANAIRRVMVDEEGEYIRENARVLKEKADVSLMKGGSSYESLESLVSYISSL | 1.0 | 2.1E+05
5 | UGT76G1var83: UGT76G1 variant, mutations I43V_Q342E_S357N_S375R_L379G (protein, UniProt Q6VAB4 1-458, looked up, variant I43V Q342E S357N S375R L379G) UDP-glycosyltransferase 76G1: MENKTETTVRRRRRIILFPVPFQGHINPILQLANVLYSKGFSVTIFHTNFNKPKTSNYPHFTFRFILDNDPQDERISNLPTHGPLAGMRIPIINEHGADELRRELELLMLASEEDEEVSCLITDALWYFAQSVADSLNLRRLVLMTSSLFNFHAHVSLPQFDELGYLDPDDKTRLEEQASGFPMLKVKDIKSAYSNWQILKEILGKMIKQTKASSGVIWNSFKELEESELETVIREIPAPSFLIPLPKHLTASSSSLLDHDRTVFQWLDQQPPSSVLYVSFGSTSEVDEKDFLEIARGLVDSKQSFLWVVRPGFVKGSTWVEPLPDGFLGERGRIVKWVPQEEVLAHGAIGAFWTHNGWNSTLESVCEGVPMIFRDFGGDQPLNARYMSDVLKVGVYLENGWERGEIANAIRRVMVDEEGEYIRQNARVLKQKADVSLMKGGSSYESLESLVSYISSL | 0.5 | 4.3E+04
6 | UGT76G1var79: UGT76G1 variant, mutations E224D_T284I_V366I_I373L_K393G (protein, UniProt Q6VAB4 1-458, looked up, variant E224D T284I V366I I373L K393G) UDP-glycosyltransferase 76G1: MENKTETTVRRRRRIILFPVPFQGHINPILQLANVLYSKGFSITIFHTNFNKPKTSNYPHFTFRFILDNDPQDERISNLPTHGPLAGMRIPIINEHGADELRRELELLMLASEEDEEVSCLITDALWYFAQSVADSLNLRRLVLMTSSLFNFHAHVSLPQFDELGYLDPDDKTRLEEQASGFPMLKVKDIKSAYSNWQILKEILGKMIKQTKASSGVIWNSFKDLEESELETVIREIPAPSFLIPLPKHLTASSSSLLDHDRTVFQWLDQQPPSSVLYVSFGSISEVDEKDFLEIARGLVDSKQSFLWVVRPGFVKGSTWVEPLPDGFLGERGRIVKWVPQQEVLAHGAIGAFWTHSGWNSTLESICEGVPMLFSDFGLDQPLNARYMSDVLGVGVYLENGWERGEIANAIRRVMVDEEGEYIRQNARVLKQKADVSLMKGGSSYESLESLVSYISSL | 8.5 | 3.8E+06
7 | UGT76G1var81: UGT76G1 variant, mutations A33G_T263S_S274G_V279I_Y397E (protein, UniProt Q6VAB4 1-458, looked up, variant A33G T263S S274G V279I Y397E) UDP-glycosyltransferase 76G1: MENKTETTVRRRRRIILFPVPFQGHINPILQLGNVLYSKGFSITIFHTNFNKPKTSNYPHFTFRFILDNDPQDERISNLPTHGPLAGMRIPIINEHGADELRRELELLMLASEEDEEVSCLITDALWYFAQSVADSLNLRRLVLMTSSLFNFHAHVSLPQFDELGYLDPDDKTRLEEQASGFPMLKVKDIKSAYSNWQILKEILGKMIKQTKASSGVIWNSFKELEESELETVIREIPAPSFLIPLPKHLTASSSSLLDHDRSVFQWLDQQPPGSVLYISFGSTSEVDEKDFLEIARGLVDSKQSFLWVVRPGFVKGSTWVEPLPDGFLGERGRIVKWVPQQEVLAHGAIGAFWTHSGWNSTLESVCEGVPMIFSDFGLDQPLNARYMSDVLKVGVELENGWERGEIANAIRRVMVDEEGEYIRQNARVLKQKADVSLMKGGSSYESLESLVSYISSL | 15.0 | 6.5E+06
8 | UGT76G1var82: UGT76G1 variant, mutations E224D_L243A_F265L_R334H_A352G (protein, UniProt Q6VAB4 1-458, looked up, variant E224D L243A F265L R334H A352G) UDP-glycosyltransferase 76G1: MENKTETTVRRRRRIILFPVPFQGHINPILQLANVLYSKGFSITIFHTNFNKPKTSNYPHFTFRFILDNDPQDERISNLPTHGPLAGMRIPIINEHGADELRRELELLMLASEEDEEVSCLITDALWYFAQSVADSLNLRRLVLMTSSLFNFHAHVSLPQFDELGYLDPDDKTRLEEQASGFPMLKVKDIKSAYSNWQILKEILGKMIKQTKASSGVIWNSFKDLEESELETVIREIPAPSFAIPLPKHLTASSSSLLDHDRTVLQWLDQQPPSSVLYVSFGSTSEVDEKDFLEIARGLVDSKQSFLWVVRPGFVKGSTWVEPLPDGFLGERGHIVKWVPQQEVLAHGAIGGFWTHSGWNSTLESVCEGVPMIFSDFGLDQPLNARYMSDVLKVGVYLENGWERGEIANAIRRVMVDEEGEYIRQNARVLKQKADVSLMKGGSSYESLESLVSYISSL | 1.1 | 2.5E+05
9 | UGT76G1var5: UGT76G1 variant, mutations F22Y_I373L_P382M (protein, UniProt Q6VAB4 1-458, looked up, variant F22Y I373L P382M) UDP-glycosyltransferase 76G1: MENKTETTVRRRRRIILFPVPYQGHINPILQLANVLYSKGFSITIFHTNFNKPKTSNYPHFTFRFILDNDPQDERISNLPTHGPLAGMRIPIINEHGADELRRELELLMLASEEDEEVSCLITDALWYFAQSVADSLNLRRLVLMTSSLFNFHAHVSLPQFDELGYLDPDDKTRLEEQASGFPMLKVKDIKSAYSNWQILKEILGKMIKQTKASSGVIWNSFKELEESELETVIREIPAPSFLIPLPKHLTASSSSLLDHDRTVFQWLDQQPPSSVLYVSFGSTSEVDEKDFLEIARGLVDSKQSFLWVVRPGFVKGSTWVEPLPDGFLGERGRIVKWVPQQEVLAHGAIGAFWTHSGWNSTLESVCEGVPMLFSDFGLDQMLNARYMSDVLKVGVYLENGWERGEIANAIRRVMVDEEGEYIRQNARVLKQKADVSLMKGGSSYESLESLVSYISSL | 3.5 | 2.3E+06
10 | UGT76G1var84: UGT76G1 variant, mutations F22L_Q266S_F314S_A352G_S357C (protein, UniProt Q6VAB4 1-458, looked up, variant F22L Q266S F314S A352G S357C) UDP-glycosyltransferase 76G1: MENKTETTVRRRRRIILFPVPLQGHINPILQLANVLYSKGFSITIFHTNFNKPKTSNYPHFTFRFILDNDPQDERISNLPTHGPLAGMRIPIINEHGADELRRELELLMLASEEDEEVSCLITDALWYFAQSVADSLNLRRLVLMTSSLFNFHAHVSLPQFDELGYLDPDDKTRLEEQASGFPMLKVKDIKSAYSNWQILKEILGKMIKQTKASSGVIWNSFKELEESELETVIREIPAPSFLIPLPKHLTASSSSLLDHDRTVFSWLDQQPPSSVLYVSFGSTSEVDEKDFLEIARGLVDSKQSFLWVVRPGSVKGSTWVEPLPDGFLGERGRIVKWVPQQEVLAHGAIGGFWTHCGWNSTLESVCEGVPMIFSDFGLDQPLNARYMSDVLKVGVYLENGWERGEIANAIRRVMVDEEGEYIRQNARVLKQKADVSLMKGGSSYESLESLVSYISSL | 1.2 | 2.3E+05
